Assay results taken from US20130004416A1 (published 2013).

T1: human IL-12 (human, UniProt P29459 23-219; P29460 23-328)
T1 construct: ABT874 is said to be against human IL-12p40; also called hIL-12
T1 sequence (looked up) 1: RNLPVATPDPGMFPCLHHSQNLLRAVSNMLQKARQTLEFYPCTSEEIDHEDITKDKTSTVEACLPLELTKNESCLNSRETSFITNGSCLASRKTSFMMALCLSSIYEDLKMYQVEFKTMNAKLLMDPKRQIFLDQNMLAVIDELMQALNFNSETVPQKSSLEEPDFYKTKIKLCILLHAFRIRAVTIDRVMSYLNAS
T1 sequence (looked up) 2: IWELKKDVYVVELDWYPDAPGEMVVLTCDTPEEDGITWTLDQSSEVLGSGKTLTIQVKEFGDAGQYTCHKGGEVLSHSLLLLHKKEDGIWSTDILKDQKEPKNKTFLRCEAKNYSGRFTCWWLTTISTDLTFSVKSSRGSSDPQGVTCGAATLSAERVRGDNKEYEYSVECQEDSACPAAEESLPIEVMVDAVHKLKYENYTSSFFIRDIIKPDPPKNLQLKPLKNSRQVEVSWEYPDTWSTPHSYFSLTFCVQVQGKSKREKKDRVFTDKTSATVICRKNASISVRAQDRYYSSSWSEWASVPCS

B1: DVD1812LL (DVD1812HC-LL / DVD1812LC-LL) (bispecific antibody)
heavy: not shown
light: EIVMTQSPATLSVSPGERATLSCRASESISSNLAWYQQKPGQAPRLFIYTASTRATDIPARFSGSGSGTEFTLTISSLQSEDFAVYYCQQYNNWPSITFGQGTRLEIKRTVAAPSVFIFPPQSVLTQPPSVSGAPGQRVTISCSGSRSNIGSNTVKWYQQLPGTAPKLLIYYNDQRPSGVPDRFSGSKSGTSASLAITGLQAEDEADYYCQSYDRYTHPALLFGTGTKVTVLG
B2: DVD1812SL (DVD1812HC-SL / DVD1812LC-SL) (bispecific antibody)
chain 1: not shown
chain 2: EIVMTQSPATLSVSPGERATLSCRASESISSNLAWYQQKPGQAPRLFIYTASTRATDIPARFSGSGSGTEFTLTISSLQSEDFAVYYCQQYNNWPSITFGQGTRLEIKRTVAAPQSVLTQPPSVSGAPGQRVTISCSGSRSNIGSNTVKWYQQLPGTAPKLLIYYNDQRPSGVPDRFSGSKSGTSASLAITGLQAEDEADYYCQSYDRYTHPALLFGTGTKVTVLGTVAAPSVFIFPPSDEQLKSGTASVVCLLNNFYPREAKVQWKVDNALQSGNSQESVTEQDSKDSTYSLSSTLTLSKADYEKHKVYACEVTHQGLSSPVTKSFNRGEC

Legend:
[1] = target: T1, human IL-12; experiment: SPR (Biacore)
[2] = target: T2, human IL-18 (human, UniProt Q14116 37-193); experiment: SPR (Biacore)
T2 construct: also called hIL-18

[3] = target: T1, human IL-12; experiment: cell-based or functional assay
[4] = target: T2, human IL-18; experiment: cell-based or functional assay

| Binder | Kd [1] [nM] | Kd [2] [nM] | Potency (IC50, M), IL-12-induced IFN-γ production by PHA blast cells [3] [M] | Potency (IC50, M), KG-1 bioassay [4] [M] |
| --- | --- | --- | --- | --- |
| B1 | 0.113 | 0.162 | 1.18e-10 | 7.8e-11 |
| B2 | 1.82 | 0.191 | 3.66e-10 | 4e-11 |
